Reference: patent US6521814B1, “Use of ligands for treatment of diseases responsive to retinoids” (Institut National de la Santa et de la Recherche Medicale, priority 1997, dated 2003)

Columns and labels:
D2R promoter = D2R promoter CAT reporter assay in transfected COS-1 cells, reporter alone; assay type: cell-based, rat; conditions: C1 reporter-transfected COS-1 cells, no receptor vector; 10^−7 M
Source text: Expression Vectors. The C1 reporter construct was obtained by subcloning the HindIII fragment spanning the 5 ′ promoter region of the D2R gene (positions −495 to +273), in the reporter plasmid pBLCAT3 (Luckow, B. & Schütz, G., Nucleic Acids Res. 15:5490 (1987)). The C2 reporter plasmid was constructed by subcloning the SmaI-XhoI fragment (positions −76 to +273) in the same position. The C3 and C4 reporters were generated by cloning a 29 bp synthetic oligonucleotide corresponding, respectively, to the natural rat D2R RARE sequence and the mutated one into pBLCAT2 (Luckow, B. & Schütz, G., Nucleic Acids Res. 15:5490 (1987)). The polylinker in pBLCAT2 is located upstream of the herpes simplex virus 1 (HSV1) thymidine kinase (TK) promoter, from position −105 to +51. To measure transfection efficiency the plasmid pCH110 carrying the β-galactosidase gene (Pharmacia) was used. Mouse […], as well as mouse RXRα, β and γ expression vectors were derived from the parental pSG5 vector (Green, S., et al., Nucleic Acids Res. 16:369 (1988)).
COS-1 cells were used for transient transfection assays. Cells were grown in Dulbecco's modified Eagle's medium supplemented with 5% fetal calf serum.
Several hours before transfection, the medium was replaced with fresh medium containing 5% charcoal-treated FCS. […]

[1] = target: T1, RARα(ΔAB)/RXRα(ΔAB) heterodimer (Mus musculus, UniProt P11416;P28700 P11416:88-462,P28700:140-467); assay: competition; competes more efficiently than native RARE D2; conditions: tags: ΔAB truncations, bacterially expressed, from H. Gronemeyer
T1 sequence 1: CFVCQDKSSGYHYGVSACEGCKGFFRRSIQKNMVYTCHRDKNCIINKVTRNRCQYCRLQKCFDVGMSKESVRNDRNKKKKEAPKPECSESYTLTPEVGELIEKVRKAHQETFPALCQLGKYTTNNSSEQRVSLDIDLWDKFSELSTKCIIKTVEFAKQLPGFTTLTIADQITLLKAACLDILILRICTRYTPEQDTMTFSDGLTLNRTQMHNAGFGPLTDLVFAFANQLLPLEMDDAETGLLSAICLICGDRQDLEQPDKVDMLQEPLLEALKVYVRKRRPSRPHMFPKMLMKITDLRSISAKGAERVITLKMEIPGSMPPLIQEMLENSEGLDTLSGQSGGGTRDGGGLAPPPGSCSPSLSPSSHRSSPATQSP
T1 sequence 2: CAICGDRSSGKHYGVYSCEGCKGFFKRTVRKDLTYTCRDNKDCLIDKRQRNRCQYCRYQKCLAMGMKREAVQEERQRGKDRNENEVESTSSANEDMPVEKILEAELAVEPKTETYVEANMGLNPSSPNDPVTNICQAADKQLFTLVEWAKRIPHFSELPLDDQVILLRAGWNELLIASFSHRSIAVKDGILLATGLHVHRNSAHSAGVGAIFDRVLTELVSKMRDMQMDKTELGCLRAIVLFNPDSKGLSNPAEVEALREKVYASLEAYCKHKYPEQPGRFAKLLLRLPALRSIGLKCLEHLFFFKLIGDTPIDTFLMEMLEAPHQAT
Source text: (§1) DNA binding competition assays. Gel shift analysis using labeled RARE D2 (SEQ ID NO:2) and recombinant RARα and RXRα as indicated. As competitors, RARE D2 (SEQ ID NO:2), RAREβ2 (SEQ ID NO:5) and the mutant […] and […] cold oligonucleotides (SEQ ID NO:3) were used as indicated at 5, 50- and 100-fold molar excess. The black arrowhead indicates the shifted complex.
(§2) To further characterize the D2R RARE element and its binding affinity to retinoid receptors, mutations were introduced into this sequence generating D2 ml (SEQ ID NO:3) and D2 m2 (SEQ ID NO:4) (FIG. 7A). These mutated oligonucleotides were used for competition in gel-shift assays (FIG. 8).
(§3) DNA Binding Assays. A 29-bp synthetic oligonucleotide (SEQ ID NO:2) corresponding to the RARE region in the D2R promoter (SEQ ID NO:1) (from positions −76 to −49), in addition to two mutated oligonucleotides (SEQ ID NOs:3 and 4) (FIG. 7A) were used in gel retardation assays. A synthetic oligonucleotide corresponding to the RARE-β2 (SEQ ID NO:5) (Mader, S., et al., *J. Biol. Chem.* 268:591–600 (1993)) was used as positive control. Bacterially-expressed purified mouse RARα (ΔAB) and RXRα (ΔAB) proteins were kindly provided by H. Gronemeyer.

RARα/RXRγ = target: T2, RARα/RXRγ (Mus musculus, UniProt P11416;P28705 P11416:1-462,P28705:1-463); assay: cell_activity; C3 TK-CAT reporter with one RARE D2 copy, t-RA and 9-cis-RA; conditions: tags: pSG5 expression vectors, COS-1 cells; label: 32P
T2 sequence 1: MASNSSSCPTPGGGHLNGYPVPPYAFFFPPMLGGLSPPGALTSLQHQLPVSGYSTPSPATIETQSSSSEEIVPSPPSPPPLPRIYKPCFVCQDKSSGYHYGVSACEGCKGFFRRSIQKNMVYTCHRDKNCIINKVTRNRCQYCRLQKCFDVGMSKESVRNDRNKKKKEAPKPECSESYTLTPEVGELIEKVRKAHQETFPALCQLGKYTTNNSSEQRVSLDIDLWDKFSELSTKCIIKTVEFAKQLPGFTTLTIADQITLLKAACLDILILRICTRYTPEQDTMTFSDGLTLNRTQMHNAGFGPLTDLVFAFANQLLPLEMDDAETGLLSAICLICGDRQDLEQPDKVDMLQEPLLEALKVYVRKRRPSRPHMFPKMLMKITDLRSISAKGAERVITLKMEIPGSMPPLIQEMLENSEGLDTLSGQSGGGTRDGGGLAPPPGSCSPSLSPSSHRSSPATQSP
T2 sequence 2: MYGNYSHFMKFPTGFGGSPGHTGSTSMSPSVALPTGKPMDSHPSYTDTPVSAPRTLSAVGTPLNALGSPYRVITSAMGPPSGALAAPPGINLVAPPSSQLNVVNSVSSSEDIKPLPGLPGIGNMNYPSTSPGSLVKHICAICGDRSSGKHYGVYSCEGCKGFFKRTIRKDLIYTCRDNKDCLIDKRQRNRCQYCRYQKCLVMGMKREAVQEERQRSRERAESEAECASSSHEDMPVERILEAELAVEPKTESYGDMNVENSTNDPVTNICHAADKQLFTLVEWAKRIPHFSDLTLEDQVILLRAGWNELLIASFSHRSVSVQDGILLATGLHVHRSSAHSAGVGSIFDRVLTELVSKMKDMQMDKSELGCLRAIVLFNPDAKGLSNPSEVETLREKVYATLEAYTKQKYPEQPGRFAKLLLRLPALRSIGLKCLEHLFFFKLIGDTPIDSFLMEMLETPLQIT
Method: Bars represent the mean of several independent experiments and standard deviations are indicated.
Several hours before transfection, the medium was replaced with fresh medium containing 5% charcoal-treated FCS. Cells (10^6 per 10 cm plate) were transfected by the calcium phosphate method using 2 μg of the reporter plasmid, 0.1 μg of retinoid acid receptor expression vectors and 0.5 μg of pCH110. In all transfection assays, the Bluescript (SK^-) plasmid was used as a carrier to reach 20 μg of total transfected DNA per plate.

[2] = target: T1, RARα(ΔAB)/RXRα(ΔAB) heterodimer; assay: competition; drastic decrease of labeled RARE D2 complex at 5-fold excess, complete at 50-fold; stronger than RARE D2; conditions: tags: ΔAB truncations, bacterially expressed, from H. Gronemeyer
Source text: as §1, §3

[3] = target: T1, RARα(ΔAB)/RXRα(ΔAB) heterodimer; assay: competition; no competition even at 100-fold excess; conditions: tags: ΔAB truncations, bacterially expressed, from H. Gronemeyer
Source text: as §1, §2, §3

CC1=C(/C=C/C(C)=C\C=C\C(C)=C\C(=O)O)C(C)(C)CCC1 [9-cis-RA, 9-cis RA]
changes in CAT activity (D2R promoter): no significant changes

B1: D2m2 (dsDNA)
DNA 1: AGCTTCCTCGTGACCAGGGTGACCCCGCG
DNA 2: CGCGGGGTCACCCTGGTCACGAGGAAGCT
binding result [1]: binds

B2: RARE D2 (dsDNA)
DNA 1: AGCTTCCTCGTGGCCAGGGTGACCCCGCG
DNA 2: CGCGGGGTCACCCTGGCCACGAGGAAGCT
activity (RARα/RXRγ): 11 fold

B3: RAREβ2 (dsDNA)
DNA 1: GGGTAGGGTTCACCGAAAGTTCACTG
DNA 2: CAGTGAACTTTCGGTGAACCCTACCC
binding result [2]: binds

B4: D2m1 (dsDNA)
DNA 1: AGCTTCCTCGGTGCGAGGGGTACGCCGCG
DNA 2: CGCGGCGTACCCCTCGCACCGAGGAAGCT
binding result [3]: no binding
